# Test results reported in patent US20170145112A1 (Genentech, published 2017).
# Residue numbers refer to the chain shown, from its start. Names may count otherwise.
# T1: Cynomolgus monkey complement Factor D (cynomolgus monkey, UniProt P00746 26-253 (human entry))
# T1 construct: also called cyfD; cFD
# T1 chain: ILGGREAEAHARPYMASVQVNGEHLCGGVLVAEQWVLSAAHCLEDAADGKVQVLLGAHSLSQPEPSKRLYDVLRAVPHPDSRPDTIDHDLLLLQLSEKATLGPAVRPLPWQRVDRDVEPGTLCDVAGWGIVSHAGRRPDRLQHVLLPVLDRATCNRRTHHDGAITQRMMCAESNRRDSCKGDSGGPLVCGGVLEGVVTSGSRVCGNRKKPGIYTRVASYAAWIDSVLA
# B1: murine 20D12 (mu20D12) IgG (antibody, V domains shown)
# VH: QVQLQQSGAELVKPGASVKLSCKASGYTFTSYYMYWVKERPGQGLEWIGEINPTNGGTNFNEKFKSKATLTVDTSSNTAYMQLSSLTSEDSAVYYCAREGGFAYWGQGTLVTVSA
# VL: DIVMTQSQKFMSTSVGDRVSVTCKASQNVDTDVAWFQQKPGQSPRGLIYSASSRYSGVPDRFTGSGSGTDFTLTISNVQSEDLAEYFCQQYNNYPLTFGSGTKVEIK
# notes: IgG format, mouse antibody
# B2: hu20D12.v1 Fab (Fab, V domains shown)
# VH: EVQLVQSGAEVKKPGASVKVSCKASGYTFTSYYMYWVRQAPGQGLEWIGEINPTNGGTNFNEKFKSRATLTVDTSTSTAYLELSSLRSEDTAVYYCAREGGFAYWGQGTLVTVSS
# VL: DIQMTQSPSSLSASVGDRVTITCKASQNVDTDVAWFQQKPGKAPKGLIYSASSRYSGVPSRFSGSGSGTDFTLTISSLQPEDFATYYCQQYNNYPLTFGQGTKVEIKR
# notes: Fab expressed in E. coli
# B3: hu20D12.v1.1 Fab (Fab, V domains shown)
# VH: B2 VH with N55Q
# VL: B2 VL
# notes: Fab expressed in E. coli; also called Hu20D12.v1.N54Q
# B4: hu20D12.v2.0 Fab (Fab, V domains shown)
# VH: B2 VH with N55S
# VL: B2 VL
# notes: Fab expressed in E. coli; also called Hu20D12.v1.N54S; hu20D12.v1.N54S
# B5: hu20D12.v2.1 Fab (Fab, V domains shown)
# VH: B2 VH with N55S
# VL: B2 VL with Y49R
# B6: hu20D12.v2.3 Fab (Fab, V domains shown)
# VH: B2 VH with T54Y, N55S, G57D
# VL: B2 VL with Y49R
# B7: hu20D12.v2.15 Fab (Fab, V domains shown)
# VH: B2 VH with T54Y, N55S, G57E
# VL: B2 VL with Y49R
# B8: hu20D12.v1 IgG (antibody, V domains shown)
# VH: B2 VH
# VL: DIQMTQSPSSLSASVGDRVTITCKASQNVDTDVAWFQQKPGKAPKGLIYSASSRYSGVPSRFSGSGSGTDFTLTISSLQPEDFATYYCQQYNNYPLTFGQGTKVEIK
# notes: Expressed as full length IgG in CHO cells
# B9: AFD.v14 Fab (Fab, V domains shown)
# VH: EVQLVQSGPELKKPGASVKVSCKASGYTFTNYGMNWVRQAPGQGLEWMGWINTYTGETTYAEDFKGRFVFSLDTSVSTAYLQISSLKAEDTAVYYCEREGGVSNWGQGTLVTVSS
# VL: DIQVTQSPSSLSASVGDRVTITCITSTSIESDMNWYQQKPGKVPKLLISGGNTLRPGVPSRFSGSGSGTDFTLTISSLQPEDVATYYCLQSDSLPYTFGQGTKVEIKR
# notes: Variant of lampalizumab; also called SIESD.N103S
# B10: hu20D12.v2.3.C+TP-Oct (Fab, V domains shown)
# VH: B2 VH with T54Y, N55S, G57D
# VL: B2 VL with Y49R
# modifications: C-terminal Cys (Cys-226, EU numbering) linked through maleimide to a 40K eight-armed PEG with tripentaerythritol (TP) core
# B11: hu20D12.v2.1.C+TP-Oct (Fab, V domains shown)
# VH: B2 VH with N55S
# VL: B2 VL with Y49R
# modifications: C-terminal Cys (Cys-226, EU numbering) linked through maleimide to a 40K eight-armed PEG with tripentaerythritol (TP) core
# Tests used:
# [1] = biological target: T2, Human complement Factor D, mature (human, UniProt P00746 27-253); test: SPR, Biacore T200, IgG captured by anti-Fc, human factor D injected
# T2 construct: In the TR-FRET assay the factor D was bought from Complement Technology; In the hemolysis assay it was the factor D of C1q-depleted human serum; also called human Factor D; hFD
# [2] = biological target: T2, Human complement Factor D, mature; test: cell-based or functional assay
# [3] = biological target: T2, Human complement Factor D, mature; test: cell-based or functional assay; remark: listed apart in the source
# [4] = biological target: T2, Human complement Factor D, mature; test: SPR, Fab captured by anti-huFab, human Factor D injected
# Method: (§1) Kinetics and binding constant KD for Factor D binding to immobilized hu20D12 versions was determined by surface plasmon resonance (SPR) measurements on a Biacore®T200 instrument. […] After subtraction of the sensorgram observed for injection of running buffer, data were analyzed according to a 1:1 model using BiaEval software v4.1 (GE Healthcare) to extract the kinetics and affinity constants.
# [5] = biological target: T2, Human complement Factor D, mature; test: cell-based or functional assay; remark: listed apart in the source
# [6] = biological target: T2, Human complement Factor D, mature; test: SPR (Biacore T200): Fab captured with anti-huFab kit, human Factor D injected, 25 C, 1:1 model;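 note: sensorgrams were corrected by subtracting a blank injection of running buffer before fitting kinetic and affinity constants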
# Method: as §1
# [7] = biological target: T2, Human complement Factor D, mature; test: cell-based or functional assay; remark: listed apart in the source
# [8] = biological target: T1, Cynomolgus monkey complement Factor D; test: SPR (Biacore T200), Fab format; cynomolgus Factor D (column 'KD (pM) cFD (cyno)')
# [9] = biological target: T2, Human complement Factor D, mature; test: cell-based or functional assay; remark: listed apart in the source
# Target sequence in this assay (P00746 27-253): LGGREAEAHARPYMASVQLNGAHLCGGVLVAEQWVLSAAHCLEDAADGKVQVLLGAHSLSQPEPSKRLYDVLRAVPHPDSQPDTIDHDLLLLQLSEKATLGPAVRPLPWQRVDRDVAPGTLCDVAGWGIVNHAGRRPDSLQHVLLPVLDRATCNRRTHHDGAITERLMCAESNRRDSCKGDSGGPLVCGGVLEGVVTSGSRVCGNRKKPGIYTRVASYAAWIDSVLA
# [10] = biological target: T2, Human complement Factor D, mature; test: SPR (refers to FIG. 11); hu20D12.v2.0
# Method: as §1
# [11] = biological target: T2, Human complement Factor D, mature; test: cell-based or functional assay; remark: listed apart in the source
# Target sequence in this assay (P00746 27-253): as above
# [12] = biological target: T1, Cynomolgus monkey complement Factor D; test: SPR, cynomolgus monkey factor D
# [13] = biological target: T2, Human complement Factor D, mature; test: SPR, Fab captured by anti-huFab, human Factor D injected; remark: listed apart in the source
# [14] = biological target: T2, Human complement Factor D, mature; test: SPR, at the limit of detection
# Target sequence in this assay (P00746 27-253): as above
# Method: as §1
binder,measurement,setting,value
B1,Kd,[1],0.066 nM
same,koff,[1],0.00039 s⁻¹
same,kon,[1],5.9e+06 M⁻¹ s⁻¹
same,Hemolysis IC50,[2],4 nM
B2,IC50 Hemolysis,[3],2.8 nM
same,Kd,[4],0.033 nM
B3,IC50 Hemolysis,[3],6.7 nM
same,Kd,[4],0.045 nM
B4,"IC50 in the TR-FRET assay, fold against lampalizumab",[5],~2 fold
same,IC50 Hemolysis,[3],4.7 nM
same,koff,[6],0.00055 s⁻¹
same,kon,[6],1.4e+07 M⁻¹ s⁻¹
same,"FRET IC50 (TR-FRET assay of Factor D-dependent factor B activation), value 1 of 2 in the cell",[7],0.051 nM
same,"FRET IC50 (TR-FRET assay of Factor D-dependent factor B activation), value 2 of 2 in the cell",[7],0.059 nM
same,Kd,[8],0.152 nM
same,Kd,[4],0.04 nM
same,"AVG IC50 (pM), TR-FRET assay of Factor D-dependent factor B activation",[9],59.2 pM
same,Kd,[10],0.039 nM
B5,"IC50, TR-FRET assay of Factor D (50 pM) cleavage of factor B",[11],32 pM
same,Kd,[6],< 0.01 nM
same,koff,[6],8.1e-05 s⁻¹
same,kon,[6],1.2e+07 M⁻¹ s⁻¹
same,"FRET IC50 (TR-FRET assay of Factor D-dependent factor B activation), value 1 of 2 in the cell",[7],0.033 nM
same,"FRET IC50 (TR-FRET assay of Factor D-dependent factor B activation), value 2 of 2 in the cell",[7],0.032 nM
same,Kd,[12],0.017 nM
same,fold improvement of affinity relative to hu20D12.v2.0,[12],~10 fold
same,fold improvement of affinity relative to lampalizumab,[12],2 fold
same,fold improvement in binding relative to hu20D12.v2.0,[13],≥ 4 fold
same,Kd,[14],~0.01 nM
B6,"IC50, TR-FRET assay of Factor D (50 pM) cleavage of factor B",[11],31 pM
same,Kd,[6],< 0.01 nM
same,koff,[6],2.9e-05 s⁻¹
same,kon,[6],1.2e+07 M⁻¹ s⁻¹
same,"FRET IC50 (TR-FRET assay of Factor D-dependent factor B activation), value 1 of 3 in the cell",[7],0.025 nM
same,"FRET IC50 (TR-FRET assay of Factor D-dependent factor B activation), value 2 of 3 in the cell",[7],0.031 nM
same,"FRET IC50 (TR-FRET assay of Factor D-dependent factor B activation), value 3 of 3 in the cell",[7],0.031 nM
same,Kd,[8],0.024 nM
same,"AVG IC50 (pM), TR-FRET assay of Factor D-dependent factor B activation",[9],31.2 pM
same,Kd,[14],~0.01 nM
B7,Kd,[6],< 0.01 nM
same,koff,[6],6e-05 s⁻¹
same,kon,[6],1.9e+07 M⁻¹ s⁻¹
same,FRET IC50 (TR-FRET assay of Factor D-dependent factor B activation),[7],0.024 nM
same,Kd,[8],0.027 nM
same,Kd,[14],~0.01 nM
B8,Kd,[1],0.046 nM
same,koff,[1],0.00067 s⁻¹
same,kon,[1],1.5e+07 M⁻¹ s⁻¹
same,Hemolysis IC50,[2],4.3 nM
B9,"IC50, TR-FRET assay of Factor D (50 pM) cleavage of factor B",[11],26 pM
same,Kd,[6],0.0233 nM
same,koff,[6],0.00021 s⁻¹
same,kon,[6],9e+06 M⁻¹ s⁻¹
same,"FRET IC50 (TR-FRET assay of Factor D-dependent factor B activation), value 1 of 3 in the cell",[7],0.025 nM
same,"FRET IC50 (TR-FRET assay of Factor D-dependent factor B activation), value 2 of 3 in the cell",[7],0.034 nM
same,"FRET IC50 (TR-FRET assay of Factor D-dependent factor B activation), value 3 of 3 in the cell",[7],0.026 nM
same,Kd,[8],0.056 nM
same,"AVG IC50 (pM), TR-FRET assay of Factor D-dependent factor B activation",[9],34 pM
B10,"IC50, TR-FRET assay of Factor D (50 pM) cleavage of factor B",[11],13 pM
B11,"IC50, TR-FRET assay of Factor D (50 pM) cleavage of factor B",[11],31 pM
